The source of these data is the supplement of paper PMC12042874.

± gives the uncertainty stated by the source.

The nature of this data set: amyloid nucleation score (Sup35N fusion, yeast selection) (log enrichment); library NNK1; higher = more nucleation; inactive = no reads after selection. In a few lines: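 The nucleation score, computed with DiMSum, is the log enrichment of output over input reads, centred on the mode score of non-aggregating sequences. Sequences with under 100 input reads were dropped. Reads were generated by Illumina sequencing of plasmid inserts from psi-negative yeast with Sup35N fused to peptides of 20 random codons, induced with 100 μM copper sulfate for 24 hours and grown 7 days at 30°C on medium lacking adenine and uracil.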
For the substance SGINLLFVFS, the amyloid nucleation score is 2.95 ± 0.25.

WYIVPITVNFQG returned an amyloid nucleation score of 6.54 ± 0.049.

Consider HSCRMYYSQRIYIPSNDGSD, for which the amyloid nucleation score was 1.68 ± 0.29.

NTMLQKVKCWKRRVDSSRQE displayed an amyloid nucleation score of 0.093 ± 0.87.

On to TVCYTGEVRMLRS, for which the amyloid nucleation score came to 4.22 ± 0.068.

SIWVIRPAAGKSEGSISNVQ had an amyloid nucleation score of 0.531 ± 0.5.

TFGDWHKLRWRRSQPKCWSG registered an amyloid nucleation score of 0.299 ± 0.36.

DGLLTGLQDRPNSSRFKYVM: the amyloid nucleation score was determined as 0.421 ± 0.33.

Substance GKYFLSICHDT had an amyloid nucleation score of 0.033 ± 0.36.

With GWQGL, the amyloid nucleation score is -0.202 ± 0.53.

Take CYEEPRMPNFFAVFYNSMLE: the amyloid nucleation score worked out at 0.144 ± 0.41.

Take IHYIPAFYRAKSILLFVYAC: the amyloid nucleation score was -0.241 ± 0.5.

Regarding QHPIWCNRSPLTHDRDTVG, the amyloid nucleation score was determined as 0.239 ± 0.24.

On to CEWVWRGSVCSIWLLVLLPV, for which the amyloid nucleation score was 0.09 ± 0.41.

Regarding NGFRSVQVLGKGAVMCVNCR, the amyloid nucleation score result was “inactive”.

In turn, NCHREFIHWVILNSGSSAHM gave an amyloid nucleation score of 1.94 ± 0.57.

The substance HFLVKCLLLLSVSSKLCVSR registered an amyloid nucleation score of 0.564 ± 0.33.

NCFVWRRMFKLISFDPYRV: the amyloid nucleation score entry was “inactive”.

For IISRLCLQLPATRT, the amyloid nucleation score turned out to be 1.21 ± 0.67.

As to RSSMPRSWAVWPRWE, the amyloid nucleation score worked out at 0.176 ± 0.71.

ACSPGTVVKDITDTSK: the amyloid nucleation score is 0.45 ± 0.63.

Substance SQMTDYVFTL returned an amyloid nucleation score of 0.848 ± 0.85.

As for IYTDSVGLFCSYADMPSDRV, the amyloid nucleation score is 0.372 ± 1.4.

For HGMWNGFTILM, the amyloid nucleation score is 3.26 ± 0.11.

As for SRCRNYYKVHVL, the amyloid nucleation score was -1.17 ± 1.7.

Regarding LSPLNVKIDSSFVFYIIRLK, the amyloid nucleation score is -0.178 ± 0.36.

RTLMRLN: the amyloid nucleation score was -0.762 ± 0.41.

SIHVVYNPTFQMNCYTFRLS: the amyloid nucleation score turned out to be 7.888 ± 0.05.

As for RLFYTRSDSGGVRLVVLAVG, the amyloid nucleation score turned out to be 0.003 ± 1.2.

Take FMLVMFYWIYFNYSNVFRD: the amyloid nucleation score is -0.669 ± 0.78.

In turn, SSGDGRRAP displayed an amyloid nucleation score of 0.335 ± 0.39.

In the case of SDVLGMSQAIGASTSVAEVV, the amyloid nucleation score entry was “inactive”.

With RHALIYMVQVAQAGWGGLEV, the amyloid nucleation score is -0.767 ± 0.78.

In turn, GEHSLSIICCVLCTVGDGPN returned an amyloid nucleation score of 7.611 ± 0.058.

MSFSPLLFVLATFCFGLWCW: the amyloid nucleation score is -0.402 ± 0.78.

Take EVIVYKTFEDVSQRVRHNWN: the amyloid nucleation score is 1.89 ± 0.22.

In turn, AAFTSSNYMFGFYFGLWVSN yielded an amyloid nucleation score of 1.55 ± 0.45.

Substance TNYWPVIFG had an amyloid nucleation score of 0.116 ± 0.36.

Take PVCHLSGFFFLYDSGCSD: the amyloid nucleation score came out at 4.82 ± 0.069.

Consider CTGFLRVWPLGEMYEDRR, for which the amyloid nucleation score came to 0.12 ± 0.58.

As to NTCYALIMVLYRRDRGPANM, the amyloid nucleation score amounted to 1.55 ± 0.17.

On to SILETLGLAFVK, for which the amyloid nucleation score was -0.41 ± 0.57.

On to LFSWVCIFECLPFKNWSQTV, for which the amyloid nucleation score entry was “inactive”.

Regarding RGAQLIRRSFKTVAGLGFIM, the amyloid nucleation score was -0.767 ± 1.4.

Turning to SRISMVMVLSLFSVKFRWNP, the amyloid nucleation score came to 0.328 ± 0.24.

In the case of PLHAANDLSCPENLDVWYHE, the amyloid nucleation score was -0.696 ± 0.83.

As for EGIHKR, the amyloid nucleation score came to 0.324 ± 0.66.

On to ALMRLTRNSMSFWRQ, for which the amyloid nucleation score is -0.17 ± 0.36.

The substance WTFTVVFFLKVSSL gave an amyloid nucleation score of 0.81 ± 0.78.

As to RTLFIRSLVYFVLSSFIFAV, the amyloid nucleation score was -0.004 ± 0.36.

NSCRTRLVTRGCSTVPNMWM: the amyloid nucleation score was -0.17 ± 0.43.

Consider CPASKFDQGP, for which the amyloid nucleation score is -0.038 ± 0.81.

The substance KLVVKWRGFLEDGDRTLWLV gave an amyloid nucleation score of 3.49 ± 0.13.

For the substance QMNGWVCCFSQGQRMFVLLM, the amyloid nucleation score was determined as 0.977 ± 0.47.

The substance QFPERWDPFLPMSRASRYYH yielded an amyloid nucleation score of 0.865 ± 0.69.

In the case of IWYRQVCANLLSN, the amyloid nucleation score entry was “inactive”.

In the case of VHRFQ, the amyloid nucleation score worked out at 0.108 ± 0.61.

For the substance LTAYLRGTDSGPERSWRCAS, the amyloid nucleation score is -0.209 ± 0.88.

In turn, SIMLADYPIHLVSNTPRMVL showed an amyloid nucleation score of 0.809 ± 0.82.

For the substance EPTDYWRVY, the amyloid nucleation score entry was “inactive”.

In the case of LMLRLRVLPVA, the amyloid nucleation score was -0.234 ± 0.26.

ILMILNLRTTSPWDWNWVSV displayed an amyloid nucleation score of 0.296 ± 0.83.

As for HDFYEDIVMEYVL, the amyloid nucleation score was 1.55 ± 0.51.

As for YYSWQEDGFPFTNVSMFWS, the amyloid nucleation score was -0.076 ± 0.37.

With WTWILPMVRTIIYQY, the amyloid nucleation score is -0.356 ± 0.27.

On to ASHLIYCFEARASLILL, for which the amyloid nucleation score was determined as 0.686 ± 1.1.

Consider MSLSDNWGL, for which the amyloid nucleation score was -0.288 ± 0.69.

Regarding LRMKVINRNPWVKTLSFVLA, the amyloid nucleation score is -0.297 ± 1.1.

For the substance FGYVDPRQCDISEHLPLSTV, the amyloid nucleation score is -0.345 ± 0.61.

The substance DKHSLKILYKCGHPSTDNGQ yielded an amyloid nucleation score of 1.51 ± 0.5.

As for QLLFRRYKMGIVSRYSVITR, the amyloid nucleation score is -0.339 ± 0.53.

FVMLGWFSRNIGLYEVFVFT returned an amyloid nucleation score of 0.502 ± 0.36.

In turn, YNLSGFDNGFSISLSCSDVA returned an amyloid nucleation score of 0.886 ± 0.74.

For the substance SLSRLRHNSFWQRTFAMLVS, the amyloid nucleation score entry was “inactive”.

LQTIYFLYE showed an amyloid nucleation score of 2.25 ± 0.13.

In the case of SLLALLPLQYWVYRIKNLVH, the amyloid nucleation score is -0.057 ± 1.5.

As for ISQYILSHLCQFIVSIGLAT, the amyloid nucleation score was -0.454 ± 0.88.

PTAEV returned an amyloid nucleation score of 0.545 ± 0.76.

Take NKFYCVI: the amyloid nucleation score was -0.927 ± 1.4.

Turning to RVGEKSVEWPAFLRYLMKWF, the amyloid nucleation score is -0.008 ± 0.5.

For TGRSIMPLSYRTYCIDEFVS, the amyloid nucleation score is 0.004 ± 0.3.

Regarding CPVKGFLSVTACDYL, the amyloid nucleation score is -0.384 ± 0.57.

For the substance IRQQKGFGCNAFWMVLG, the amyloid nucleation score turned out to be 0.83 ± 0.78.

Substance RFSRVFIRLMGDVALSSGLL yielded an amyloid nucleation score of 0.532 ± 0.53.

IRWRSSFVQSMMVTHQHQSF registered an amyloid nucleation score of 1.85 ± 0.16.

Take ALTIDRCRAESYLRRLTFLL: the amyloid nucleation score was -0.653 ± 0.4.

Regarding CETVG, the amyloid nucleation score entry is “inactive”.

NSMSNF: the amyloid nucleation score was -1.08 ± 2.4.

In the case of CRNLFMWDIRRGKYITARKK, the amyloid nucleation score was -0.779 ± 1.6.

Consider LEINIVACVDTA, for which the amyloid nucleation score is -0.559 ± 0.36.

As to YSSWVKLASLVDRDVPQYDW, the amyloid nucleation score result was “inactive”.

Take HFASRLMRKEFAVRFLRGFS: the amyloid nucleation score was -0.608 ± 1.2.

In the case of NYVGWLLCASILVRYNGTLE, the amyloid nucleation score came out at 1.26 ± 0.77.

On to CYAPSGLLNLPNASFS, for which the amyloid nucleation score was -1.26 ± 1.5.

Regarding YLLYDQQVSLRFVWITLSVW, the amyloid nucleation score was found to be 0.683 ± 0.41.

On to QHWNGTNNMILYYFPRPSAR, for which the amyloid nucleation score worked out at 5.25 ± 0.065.

For the substance RIGFPSQSGLLVVAVLTQSA, the amyloid nucleation score was -0.379 ± 0.43.

Consider LVHVGSQHKTFTPCSMEFLI, for which the amyloid nucleation score entry was “inactive”.

Substance NLVAAYRY came in with an amyloid nucleation score of 0.146 ± 0.45.

As to RIDCYW, the amyloid nucleation score was -0.858 ± 1.1.

In the case of NFKTSKWYESGRASRSS, the amyloid nucleation score was -0.076 ± 0.41.

Take LRRLSMA: the amyloid nucleation score entry was “inactive”.

In turn, NMWGVGDVTGIF displayed an amyloid nucleation score of 1.62 ± 0.59.

As to STVRSAPFSWLPGKYGWSKC, the amyloid nucleation score is -0.214 ± 0.98.

Regarding RVLDLKWPCYMGSVNLASRR, the amyloid nucleation score was 0.016 ± 0.74.

For LTSRVQCKNNCFSD, the amyloid nucleation score amounted to 2.38 ± 0.55.

Substance VITRFYGSVGLRIPAIAVVL registered an amyloid nucleation score of 0.886 ± 0.58.

With ILHFWLTYK, the amyloid nucleation score was determined as 4.63 ± 0.1.

In the case of RRYVICNYCLYSRV, the amyloid nucleation score turned out to be 1.12 ± 0.33.

KSTTYKNLPSHGLRNSICTK came in with an amyloid nucleation score of 0.842 ± 0.69.

Regarding TGLVWYYCHSHRWNFRPCQW, the amyloid nucleation score worked out at 0.173 ± 0.55.

AVRVLPSLNVGAGMRQVVFT: the amyloid nucleation score came to 0.693 ± 0.5.

In the case of GYAFVY, the amyloid nucleation score was -0.037 ± 0.52.

ILYVVWFYVLLRWVRVLLLR gave an amyloid nucleation score of 0.884 ± 0.49.

As to LREECKVAWYLNGDCVVYCK, the amyloid nucleation score result is “inactive”.

EKRRNNTSNRSWSGSYFLDT came in with an amyloid nucleation score of 0.111 ± 0.28.

Take VIITLSRCSRDHTDVMGTFV: the amyloid nucleation score was -0.81 ± 1.4.

The substance LFRLIAFWDWLYSWNRFFGW displayed an amyloid nucleation score of 0.481 ± 0.43.

Take NCLVAFYLKGYSCWWRFIIC: the amyloid nucleation score came to 1.53 ± 0.52.

With LMQSCWSFHYNRLASLLRHT, the amyloid nucleation score was -0.316 ± 0.88.

With RVVRSATADITACMSLNIYR, the amyloid nucleation score turned out to be 0.879 ± 0.56.

As to IYMVGAEPVRERDIVFVPTL, the amyloid nucleation score is 1.24 ± 0.98.

VFLKDSTVAGNVMTCDIRVV yielded an amyloid nucleation score of 0.078 ± 0.6.

For KRIVCMFSWPSLT, the amyloid nucleation score is -0.921 ± 0.88.

As to QAVRDVRLCN, the amyloid nucleation score is -0.073 ± 0.61.

MVGRNWKTGSIVTLVMFRLE gave an amyloid nucleation score of 0.041 ± 1.1.

For the substance LSGWRYMVKA, the amyloid nucleation score worked out at 0.039 ± 0.41.

For SSSVVSV, the amyloid nucleation score turned out to be 0.102 ± 0.33.

With IWVFMVVIMC, the amyloid nucleation score is 1.07 ± 0.79.

VTSLCYRNFFGVVEVLRYCQ had an amyloid nucleation score of 0.677 ± 0.51.

With VLEWRGPF, the amyloid nucleation score was -0.239 ± 0.42.

In the case of FIAQLYVNEMFDSLTLRRGD, the amyloid nucleation score came out at 0.415 ± 0.33.

On to NVIWVASYF, for which the amyloid nucleation score was -0.914 ± 0.44.

In turn, IFCSNECVSTVDADTPGLSL registered an amyloid nucleation score of 9.289 ± 0.044.

For LMRDSCHDQQVLGCFYMSKL, the amyloid nucleation score was -0.215 ± 1.2.

In turn, TSEGHSLRNEEEGSSEGRCK yielded an amyloid nucleation score of 0.905 ± 0.51.

RFRFNWLNSQNLQRFVGTFK had an amyloid nucleation score of 0.433 ± 0.3.

With SKLMRVVCVVISVAYTWNEE, the amyloid nucleation score was 0.188 ± 0.32.

In the case of RLAQYHMYIKFETGYN, the amyloid nucleation score was 1.23 ± 0.36.

Consider MGYCIWFYLKSYH, for which the amyloid nucleation score is -0.074 ± 0.3.
